Source: the supplement of paper PMC10724198
± gives the standard deviation of the averaged measurements.

Assays:
Saccharomyces cerevisiae [1] = experiment: protein stability index of tFT-peptide fusion (C-terminal peptide) (PSI (0-1 scale)); higher = more stable (slower turnover); conditions: genetic background: wild type; temperature: 30 C
Saccharomyces cerevisiae [2] = experiment: as above
Description: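 MPS profiling in S. cerevisiae of the tFT-X12 degron library: putative degron peptides plus stable controls, 12 aa, fused to the C-terminus of a sfGFP-mCherry timer. Cells are FACS-sorted into 8 mCherry/sfGFP bins and deep-sequenced. PSI runs from 0 (unstable) to 1 (stable). Backgrounds are wild type, das1Δ and doa10Δ at 30 °C, and wild type, das1Δ, cdc34-1 and cdc53-1 at 37 °C; 2-3 technical replicates each.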

[3] = genetic background: cdc34-1, temperature: 37 C
[4] = genetic background: cdc53-1, temperature: 37 C
[5] = genetic background: das1 deletion, temperature: 30 C
[6] = genetic background: das1 deletion, temperature: 37 C
[7] = genetic background: doa10 deletion, temperature: 30 C
[8] = genetic background: wild type, temperature: 30 C
[9] = genetic background: wild type, temperature: 37 C
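Note: PSI is a weighted mean of sequencing reads over stability bins, variants kept only with over 10 reads, mCherry proximal and sfGFP distal, peptide attached via GGGS linker.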

Sequence | protein stability index (Saccharomyces cerevisiae [1]) | protein stability index (Saccharomyces cerevisiae [2]; [3]) | protein stability index (Saccharomyces cerevisiae [2]; [4]) | protein stability index (Saccharomyces cerevisiae [2]; [5]) | protein stability index (Saccharomyces cerevisiae [2]; [6]) | protein stability index (Saccharomyces cerevisiae [2]; [7]) | protein stability index (Saccharomyces cerevisiae [2]; [8]) | protein stability index (Saccharomyces cerevisiae [2]; [9])
FILIFLGILSCC | 0.378 ± 0.04 | 0.409 ± 0.0092 | 0.453 ± 0.058 | 0.356 ± 0.026 | 0.463 ± 0.014 | 0.312 ± 0.0014 | 0.325 ± 0.025 | 0.4149 ± 0.0031
IKKKRNKKKMIM | 0.505 ± 0.042 | 0.653 ± 0.093 | 0.727 ± 0.011 | 0.655 ± 0.026 | 0.731 ± 0.026 | 0.316 ± 0.035 | 0.322 ± 0.048 | 0.597 ± 0.013
LMFCPPLLRVAL | 0.485 ± 0.013 | 0.44 ± 0.023 | 0.4421 ± 0.0031 | 0.372 ± 0.03 | 0.526 ± 0.015 | 0.399 ± 0.026 | 0.392 ± 0.018 | 0.473 ± 0.0086
GCIMHLTIYVRD | 0.322 ± 0.0096 | 0.302 ± 0.03 | 0.3761 ± 0.0008 | 0.265 ± 0.026 | 0.439 ± 0.032 | 0.2235 ± 0.0014 | 0.26 ± 0.028 | 0.4088 ± 0.0016
VVCFGCLAFFLG | 0.497 ± 0.0057 | 0.579 ± 0.0076 | 0.613 ± 0.011 | 0.461 ± 0.021 | 0.624 ± 0.044 | 0.412 ± 0.043 | 0.409 ± 0.028 | 0.533 ± 0.027
ALERCFIRRVTV | 0.477 ± 0.069 | 0.513 ± 0.013 | 0.582 ± 0.024 | 0.415 ± 0.017 | 0.593 ± 0.021 | 0.322 ± 0.024 | 0.394 ± 0.016 | 0.532 ± 0.01
KRLRDFLVIMCS | 0.196 ± 0.014 | 0.198 ± 0.024 | 0.2289 ± 0.0013 | 0.24 ± 0.03 | 0.358 ± 0.0079 | 0.112 ± 0.0067 | 0.118 ± 0.019 | 0.098 ± 0.02
FLLHLVAHFSFL | 0.527 ± 0.044 | 0.544 ± 0.014 | 0.571 ± 0.0063 | 0.517 ± 0.0071 | 0.531 ± 0.0066 | 0.473 ± 0.027 | 0.472 ± 0.017 | 0.503 ± 0.003
NRLHYSPLYTIY | 0.239 ± 0.0099 | 0.641 ± 0.087 | 0.735 ± 0.033 | 0.653 ± 0.0076 | 0.753 ± 0.0065 | 0.111 ± 0.011 | 0.153 ± 0.015 | 0.256 ± 0.0026
GWRVWVQIIWGR | 0.352 ± 0.028 | 0.316 ± 0.013 | 0.409 ± 0.0041 | 0.293 ± 0.027 | 0.441 ± 0.018 | 0.282 ± 0.0029 | 0.286 ± 0.02 | 0.40261 ± 8.5e-05
KIKVFHEMVLMC | 0.18 ± 0.0043 | 0.37 ± 0.059 | 0.587 ± 0.0097 | 0.446 ± 0.031 | 0.628 ± 0.017 | 0.114 ± 0.0016 | 0.139 ± 0.013 | 0.135 ± 0.043
LSITQLFCLCAV | 0.3742 ± 0.0031 | 0.317 ± 0.0048 | 0.337 ± 0.02 | 0.289 ± 0.031 | 0.4 ± 0.0069 | 0.2322 ± 0.0017 | 0.272 ± 0.016 | 0.356 ± 0.006
NFFYLFLSFGFG | 0.436 ± 0.022 | 0.523 ± 0.076 | 0.565 ± 0.034 | 0.48 ± 0.025 | 0.588 ± 0.0086 | 0.46 ± 0.029 | 0.482 ± 0.03 | 0.552 ± 0.0068
ACCLLFSFAFTV | 0.301 ± 0.028 | 0.452 ± 0.026 | 0.5103 ± 0.0014 | 0.32 ± 0.04 | 0.517 ± 0.0016 | 0.187 ± 0.0034 | 0.213 ± 0.029 | 0.4184 ± 0.0027
VLDLLRHGFLWQ | 0.761 ± 0.071 | 0.686 ± 0.051 | 0.736 ± 0.0032 | 0.706 ± 0.024 | 0.727 ± 0.011 | 0.689 ± 0.017 | 0.6984 ± 0.0056 | 0.7119 ± 0.0068
WILSIVVWGKRV | 0.188 ± 0.068 | 0.2245 ± 0.0016 | 0.363 ± 0.068 | 0.231 ± 0.025 | 0.433 ± 0.026 | 0.0761 ± 0.025 | 0.114 ± 0.017 | 0.209 ± 0.019
IVCFCFFLMFSL | 0.378 ± 0.0077 | 0.319 ± 0.063 | 0.34 ± 0.011 | 0.321 ± 0.021 | 0.417 ± 0.014 | 0.4222 ± 0.0033 | 0.317 ± 0.017 | 0.3766 ± 0.0011
LSWWCFLVLLHW | 0.302 ± 0.094 | 0.172 ± 0.0081 | 0.14 ± 0.044 | 0.232 ± 0.026 | 0.323 ± 0.021 | 0.262 ± 0.017 | 0.202 ± 0.016 | 0.268 ± 0.012
AIREVQYSFFPS | 0.715 ± 0.021 | 0.681 ± 0.041 | 0.755 ± 0.018 | 0.652 ± 0.0074 | 0.7527 ± 0.0042 | 0.6445 ± 0.0018 | 0.66 ± 0.012 | 0.723 ± 0.016
GGLGIVWLWLVV | 0.378 ± 0.047 | 0.344 ± 0.021 | 0.42 ± 0.024 | 0.307 ± 0.033 | 0.4926 ± 0.0048 | 0.234 ± 0.016 | 0.282 ± 0.02 | 0.467 ± 0.016

Sequence | protein stability index (Saccharomyces cerevisiae [1]) | protein stability index (Saccharomyces cerevisiae [2]; [3]) | protein stability index (Saccharomyces cerevisiae [2]; [4]) | protein stability index (Saccharomyces cerevisiae [2]; [5]) | protein stability index (Saccharomyces cerevisiae [2]; [6]) | protein stability index (Saccharomyces cerevisiae [2]; [7]) | protein stability index (Saccharomyces cerevisiae [2]; [8]) | protein stability index (Saccharomyces cerevisiae [2]; [9])
AVYEGLLIRCLI | 0.337 ± 0.011 | 0.4982 ± 0.0037 | 0.5271 ± 0.0033 | 0.392 ± 0.033 | 0.5549 ± 0.0045 | 0.195 ± 0.013 | 0.251 ± 0.021 | 0.392 ± 0.0068
FGFLVVLFDCVR | 0.436 ± 0.07 | 0.336 ± 0.0095 | 0.437 ± 0.015 | 0.327 ± 0.034 | 0.474 ± 0.017 | 0.2652 ± 0.00067 | 0.291 ± 0.028 | 0.464 ± 0.0057
SCDMIVTLIQIR | 0.409 ± 0.027 | 0.5 ± 0.047 | 0.53 ± 0.022 | 0.375 ± 0.033 | 0.539 ± 0.0092 | 0.35 ± 0.016 | 0.383 ± 0.02 | 0.527 ± 0.0017
LFIYSVCSYYYE | 0.349 ± 0.0058 | 0.31 ± 0.037 | 0.411 ± 0.053 | 0.269 ± 0.038 | 0.461 ± 0.049 | 0.227 ± 0.0051 | 0.283 ± 0.016 | 0.418 ± 0.068
GLFWWVWAGFFC | 0.436 ± 0.011 | 0.7005 ± 0.0052 | 0.7681 ± 0.0013 | 0.583 ± 0.023 | 0.8189 ± 0.0055 | 0.428 ± 0.025 | 0.421 ± 0.018 | 0.624 ± 0.056
GLLAWGCVFWVV | 0.259 ± 0.014 | 0.402 ± 0.037 | 0.52 ± 0.01 | 0.336 ± 0.048 | 0.544 ± 0.01 | 0.167 ± 0.015 | 0.198 ± 0.017 | 0.3379 ± 0.00092
LCWLCIRWSRVV | 0.152 ± 0.0052 | 0.368 ± 0.044 | 0.543 ± 0.023 | 0.443 ± 0.017 | 0.589 ± 0.013 | 0.0721 ± 0.015 | 0.0746 ± 0.012 | 0.085 ± 0.02
LWAVGWIIYFIV | 0.172 ± 0.024 | 0.0967 ± 0.0059 | 0.245 ± 0.014 | 0.211 ± 0.028 | 0.362 ± 0.0042 | 0.106 ± 0.026 | 0.106 ± 0.011 | 0.0941 ± 0.006
FVRVFMASIIWC | 0.452 ± 0.0082 | 0.478 ± 0.032 | 0.487 ± 0.034 | 0.395 ± 0.029 | 0.508 ± 0.024 | 0.391 ± 0.012 | 0.376 ± 0.036 | 0.518 ± 0.013
AVLVSGMVVWLV | 0.436 ± 0.032 | 0.643 ± 0.053 | 0.709 ± 0.015 | 0.54 ± 0.025 | 0.672 ± 0.06 | 0.32 ± 0.013 | 0.357 ± 0.0096 | 0.563 ± 0.01
GIALYVCFICVG | 0.245 ± 0.05 | 0.213 ± 0.0051 | 0.364 ± 0.013 | 0.253 ± 0.017 | 0.4325 ± 0.0026 | 0.137 ± 0.026 | 0.17 ± 0.015 | 0.276 ± 0.012
SGVHWFRGNSWG | 0.712 ± 0.0087 | 0.697 ± 0.00077 | 0.749 ± 0.012 | 0.653 ± 0.0093 | 0.74 ± 0.027 | 0.657 ± 0.0087 | 0.646 ± 0.013 | 0.716 ± 0.036
HIVWVLQRAFRG | 0.509 ± 0.039 | 0.511 ± 0.058 | 0.516 ± 0.0086 | 0.493 ± 0.021 | 0.504 ± 0.02 | 0.506 ± 0.038 | 0.488 ± 0.016 | 0.485 ± 0.018
LVSLLYFIVSLF | 0.311 ± 0.007 | 0.516 ± 0.013 | 0.579 ± 0.033 | 0.473 ± 0.0089 | 0.566 ± 0.031 | 0.241 ± 0.018 | 0.254 ± 0.011 | 0.323 ± 0.014
LVFRIRNANRLV | 0.309 ± 0.014 | 0.615 ± 0.046 | 0.7144 ± 0.0041 | 0.6418 ± 0.0024 | 0.728 ± 0.024 | 0.127 ± 0.015 | 0.164 ± 0.026 | 0.314 ± 0.03
FVGCFVFYLFLL | 0.417 ± 0.013 | 0.422 ± 0.023 | 0.479 ± 0.016 | 0.418 ± 0.031 | 0.5184 ± 0.0036 | 0.394 ± 0.011 | 0.362 ± 0.035 | 0.458 ± 0.027
VWSFFTSFIRYI | 0.169 ± 0.028 | 0.5614 ± 0.0036 | 0.647 ± 0.018 | 0.6542 ± 0.0065 | 0.752 ± 0.041 | 0.106 ± 0.0018 | 0.109 ± 0.022 | 0.114 ± 0.0081
SLLSELILVGVS | 0.406 ± 0.021 | 0.394 ± 0.0081 | 0.409 ± 0.0044 | 0.284 ± 0.035 | 0.465 ± 0.0089 | 0.229 ± 0.011 | 0.304 ± 0.018 | 0.4308 ± 0.0017
SWLLLVFPLSVC | 0.191 ± 0.016 | 0.0423 ± 0.012 | 0.0634 ± 0.005 | 0.167 ± 0.03 | 0.231 ± 0.0058 | 0.0982 ± 0.0044 | 0.0994 ± 0.021 | 0.113 ± 0.0063
